Source: the nanobody polyreactivity screen of Harvey et al. (2022)

experiment: yeast display, Sf9 membrane polyspecificity reagent, FACS + sequencing; frameworks hold sequencing errors
Procedure, shortened: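 Galactose-induced (36–48 hours) yeast carrying a synthetic nanobody display library were exposed to 10% biotinylated, detergent-solubilized Sf9 membrane reagent at 4 °C for 1 hour. FACS followed streptavidin microbead enrichment, using low and high (top ~1%) gates for expression (anti-HA) and reagent binding (streptavidin). Colony PCR, MiSeq 2 × 250 sequencing and CDR-length filtering followed. Labels for polyreactivity reflect the gate of origin.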

Sequence | polyreactivity (PSR sort gate)
QVQHVESGGGLVQAGGSLRLSCAASGGTFYTYAMGWYRQAPGKERELVAAITSRGSSTYYADSVKGRFTISRDNANNTVYLQMNSLKPEDTAVYYCARRSQRGMYSMYYWGQGTQVTVSS | low polyreactivity
QVQHVESGGGLVQAGGSLRLSCAASGIFVDNAMGWYRQARGKERELVAAITSSTDSTYYADSVKGRFPISRDNAKNTVYLQINSLNPEDSAVYYCAVARPGGFYFLVHYGYGYWGQGTQVTVSS | low polyreactivity
QVQHVESGGGLVQAGGSLRLSCAASGIIFDGNVMGWDRQAPGKEREFVASISISGGSTSYADSVKGRFTISRDNAKNTVYLQMNSLKPEDTAVYYCNTDVGYGRVCRWRYHGDYWGQGTQVTVSS | low polyreactivity
QVQHVESGGGLVQAGGSLRLSCAASGIIFIVYAMGWYRQAPGKERELVAAISNGGSTYYADSVKGRFTISRDNAKNTVYLQMNSLKPEDTAVYYCAAGGALASQWSKKLYDYWGQGTQVTVSS | low polyreactivity
QVQHVESGGGLVQAGGSLRLSCAASGIIITGNAMGWYRQAPGKERELVAAISTSGGRTYYADSVKGRFTISRDNAKNTVYLQMNSLKPEDTAVYYCAADDLSGTELYYWGQGTQVTVSS | high polyreactivity
QVQHVESGGGLVQAGGSLRLSCAASGLIFARNAMVWYRQAPGKERELVAAISSSGNTYADSVKGRFTISRDNAKNTVYLQMNSLKPEDTAVFYCAADYVRWGQRKRSRYYYWGHGTQVTVSS | high polyreactivity
QVQHVESGGGLVQAGGSLRLSCAASGLIFSWTAMGWYRQAPGKERELVASISYSGGRTYYADSVKGRFTISRDNAKNTVYLQMNSLKPEDTAVYYCAADTNATTDPEMDYWGQGTQVTVSS | low polyreactivity
QVQHVESGGGLVQAGGSLRLSCAASGLTFANYVMGWYRQAPGKERELVASISISGGSTYYADSVKGRFTISRDNAKNTVYLQMNSLKPEDTAVYYCAASFVSSYQYDYWGQGTQVTVSS | high polyreactivity
QVQHVESGGGLVQAGGSLRLSCAASGLTFLSNAMGWYRPARGNEWELVAAINSGARKFYADSVKGRFTISRDNAKNTVYLQMNCLKPEDTAVYYCNADYGKPSYYDDGDYWGEGTQVTVSS | low polyreactivity
QVQHVESGGGLVQAGGSLRLSCAASGLTLKRNAMGWYRQAPGKERELVAAISGRGGSTYYADSVKGRFTISRDNAKNTVYLQMNSLKPEDTAVYYCAATVQYSPIYDYWGQGTQVTVSS | high polyreactivity
QVQHVESGGGLVQAGGSLRLSCAASGNIFDRNAMGWDRQARGKERELVAAISRSGGRTYYADSVKGRFTISRDHAKNTVYLQMNSLKPEDTAVYYCNRRYRKYSSAKYDYWGQGTQVTVSS | high polyreactivity
QVQHVESGGGLVQAGGSLRLSCAASGNIFTRNPMGWYRQAPGKERELVAAINYSGGSTYYADSVKGRFTISRDNAKNTVYLQMNSLKPEDTAVYYCAKDYAPSTDSYDYWGQGTQVTVSS | low polyreactivity
QVQHVESGGGLVQAGGSLRLSCAASGRIFGKNDMGWYRQAPGNERELVAAITTSGGSTYYADSVKGRFTISRYNAKNTVYLQMNSLKPEDTAVYYCNAAFQNKGYIRKYKYDYWGQGTQVTVSS | low polyreactivity
QVQHVESGGGLVQAGGSLRLSCAASGRIFGTYAMGWYRQAPGKERELVAAISWSGGRTYYADSVKGRFTISRDNAKNTVYLQMNSLKPEHTAVYYCAARGVPRDGRHHYRYDYWGQGSQVTVSS | high polyreactivity
QVQHVESGGGLVQAGGSLRLSCAASGRIFGYYAMGWYRQAHGKQSELVAAITSGGRTNYADSVKGRFTISRDNAKNTVYLQMNSLKPEDTAVYYCAKEYPRYSSPYDYWGQGTQVTVSS | low polyreactivity
QVQHVESGGGLVQAGGSLRLSCAASGRIFHRNAMGWYRKAPGKERELVAAISYRSGSTYYADSVKGRFTISRDNEKYTVYLQMNSLKPEDTAVYYCAKVRHIRFHYYYGYQSYYYWGQGTQVTLSS | high polyreactivity
QVQHVESGGGLVQAGGSLRLSCAASGRIFVPYGMGWYRQAPGKERELVAAISLRGGTTYYADSVKGRFTISRDNAKNTVYLQMNSLKPEDTAVYYCAARGYVSVWRPYHWFVAGDYWGQGTQVTVSS | high polyreactivity
QVQHVESGGGLVQAGGSLRLSCAASGRIFVYYALGWYRQAPGKERELVASISYSGASTYYADSVKGRFTISRDNAKNTVYLQMNSLKPEDTAVYYCNTDGDDFFHVIYDYWGQGTQVTVSS | low polyreactivity
QVQHVESGGGLVQAGGSLRLSCAASGRIFYAYAMGWYRQAPGKERELVASISGGGSTDYADSVKGRFTISRDNAKNTVYLQMNSLKPEDTGVYYCAAQYYLYRSRFDYWGQGTQVTVSS | high polyreactivity
QVQHVESGGGLVQAGGSLRLSCAASGRTFAKYAMRWSRQAPGKERELVAAIRWSGGSTYYADSVKGRFTISRDNAKNTVYLQMNSLKPEDTAVYYCAARPALWGRYRGYDYWGQGTQVTVSS | high polyreactivity
QVQHVESGGGLVQAGGSLRLSCAASGRTFALNAMGWYRQAPGKERELVAAISWSSGRTYYADSVKGRFTISRDNAKNTVYLQMNSLKPEDTAVYYCAALVAHKGDYWGQGTQVTVSS | high polyreactivity
QVQHVESGGGLVQAGGSLRLSCAASGRTFDRNAMGWYRQPPGKERELVAGITRSGDSTYADSVKVRFTISRDNAKNTVYLQMNSLKPVDTAVYYCNKEGTIGGTRGYWGQGTQVTVSS | low polyreactivity

Sequence | polyreactivity (PSR sort gate)
QVQHVESGGGLVQAGGSLRLSCAASGRTFGQNAMGWYRQAPGKERELVASIRSGGITDYADSVKGRFTISRDNAKNTVYLHMNSLKPEDTAVYYCNAEGVWWSTRYDSWGQGTQVTVSA | low polyreactivity
QVQHVESGGGLVQAGGSLRLSCAASGRTFRGNAMGWDRQAPGKERELVAAIRYRGGSTYYADSVKGRFTISRDNAKNTVYLQMNSLKPEDTAVYYCARRYTVHTQHYDYWGQGTQVTVSS | high polyreactivity
QVQHVESGGGLVQAGGSLRLSCAASGRTFSANAMGWDRQAPGKEMELVATISSGGRTNYADSVKGRFTISRDNAKNTVYLQMNSLKPEDTAVYYCAKRGPYKRWYGRYDYWGQGTQVTVSS | low polyreactivity
QVQHVESGGGLVQAGGSLRLSCAASGRTFYRNAMGWSRQAPGKERELVARINDGAGTYYADSVKGRFTISRDNAKNTVYLQMNSLKPEDTAVYYCAADYGSKLDYGYWGQGTQVTVSS | low polyreactivity
QVQHVESGGGLVQAGGSLRLSCAASGRTITLNAMGWYRQAPGKERELVAAITWGAGSTYYADSVKGRFTISRDNAKNTVYLQMNSLKPEDTAVYYCAARFHGAYYRYRSPSMYYWGQGTQVTVSS | high polyreactivity
QVQHVESGGGLVQAGGSLRLSCAASGRTSFNYTQGWYRQAPGKERELVAAITSGGDTYYADSVKGRFTISRDNAKNTVYLPMNSLKPEDTAVYYCAVDDLGSEYDYWGQGTQVTVSS | low polyreactivity
QVQHVESGGGLVQAGGSLRLSCAASGSIFAYYAMGWYRQAPGKERELVAAISYRGGSTYYADSVKGRFTISRDNAKNTVYLQMNSLKPEDTAVYYCNAGGRRRIFAHSSTGDYWGQGTQVTVSS | high polyreactivity
QVQHVESGGGLVQAGGSLRLSCAASGSIFGRYAMGWYRQAPGKERELVAAIRTDGSTYYADSVKGRFTISRDNAKNTVYLQMNSLKPEDTAVYYCAAVSKFQFHYIQYADRQYGYWGQGTQVTVSS | low polyreactivity
QVQHVESGGGLVQAGGSLRLSCAASGSIFGRYVMGRYRQAPGKESEFVAAISRSGGRTYYADSVKGRFTISRDNAKNTVYLQMNSLKPEDTAVYYCNAVGAAGPYDYWGQGTQVTVSS | high polyreactivity
QVQHVESGGGLVQAGGSLRLSCAASGSIFITYAMGWYRQAPGKERELVAAIRDSGDRTYYADSVKGRFTISRDNAKNTVYLQMNSLKPEDTAVYYCNARWQEPQKYDYWGQGTQVTVSS | low polyreactivity
QVQHVESGGGLVQAGGSLRLSCAASGSIFVWYAMGWYRQAHGKERELVAAINWSGGRTYYADSVKGRFTISRDNAKNTVYLQMNSLKPEDTAVYYCAAELRRSDTYNYWGQGTQVTVSS | high polyreactivity
QVQHVESGGGLVQAGGSLRLSCAASGSIFYIYAMGWYRQAPGKERELVAAISGSGSTYYADSVKGRFTISRDNAKNTVYLQMNSLKPEDTAVYDCAVELWRFWGAYTYTYDYWGQGTLVTVSS | high polyreactivity
QVQHVESGGGLVQAGGSLRLSCAASGSILGVNAMGWYRQAPGKERELVAAISRTGGTTYYADSVKGRFTISRDNAKNTVYLQMHSLKPEDTAVYYCAGDVVFTSVPTGYLGYEYWGQGTQVTVSS | high polyreactivity
QVQHVESGGGLVQAGGSLRLSCAASGSTFAFYAMGWYRQAPGKERELVAAITWRVGSTYYADSVKGRFTISRDNAKNTVYLQMNSLKPEDTAVYYCAVDIPFYDSDYCGQGTQVTVSS | low polyreactivity
QVQHVESGGGLVQAGGSLRLSCAASGSTFDRYAMAWYRQAPGKERELVAAISRSTGRTNYADSVKGRFTISRDNAKNTVYLQMNSLIPEDTAVYYCAAYRYLRYDYWGQGTQVTVSS | high polyreactivity
QVQHVESGGGLVQAGGSLRLSCAASGSTFKFYTMGWYRQAPGKERELVAGSTRAGSTNYADSVKGRFTISRDNAKNTVYLQMNSLKPEDTAVYYCNAYIWIYGCDYWGQGTQVTVSS | high polyreactivity
QVQHVESGGGLVQAGGSLRLSCAASGSTFLANTMGWYRQAHGKERELVAAITRRGGSTRYADSVKGRFTISRDNAKNTVYLQMNSLKPEDTAVYYCAAPWFRDTRGYSLYDYWGQGTQVTVSS | high polyreactivity
QVQHVESGGGLVQAGGSLRLSCAASGSTFLYYAMGWSRQAPGKERELVARITTRVGRTYYADSVKGRFTISRDNAKNTVYLQMNSLKPEDTAVYYCAAYPDYSYYYWGQGTQVTVSS | high polyreactivity
QVQHVESGGGLVQAGGSLRLSCAASGSTFRFYDMGWYRQSPGKERELVATISSSGGTTYYADSVKGRFTISRDNAKNTVYLQMNSLKPEDTAVYYCNKYYGGRYRQYAYGYWGQGTQVTVSS | high polyreactivity
QVQHVESGGGLVQAGGSLRLSCAASGSTFRVNAMGWYRPAPGKERELVAGISKSGTSTYYADSVKGRFTISRDNAKNTVYLQMNSLKPEDTAVYYCIKGYYRHPDESDYWGQGTQVTVSS | high polyreactivity
QVQHVESGGGLVQAGGSLRLSCAASGSTFYYYAMGWYRQARGKERELVATISRSTARTFYADSVKGRFTISRDNAKITVYLQMNSLKPEDTAVYYCAREYYYRRGFFLRGYWGQGTQVTVSS | high polyreactivity
